The supplement of paper PMC7877785
± gives the uncertainty stated by the source.

Assay: self-splicing fitness, log relative to wild type (ln ratio); higher = more splicing; Tetrahymena group I intron in knt gene, E. coli kanamycin selection, DiMSum; sequences stand for … in CUCUCU…GGAGGGAAAAGUUAUCAGGCAUGCACCUGGUAGCUAGUCUUUAAACCAAUAGAUUGCAUCGGUUUAAAAGGCAAGACCGUCAAAUUGCGGGAAAGGGGUCAACAGCCGUUCAGUACCAAGUCUCAGGGGAAACUUUGAGAUGGCCUUGCAAAGGGUAUGGUAAUAAGCUGACGGACAUGGUCCUAACCACGCAGCCAAGUCCUAAGUCAACAGAUCUUCUGUUGAUAUGGAUGCAGUUCACAGACUAAAUGUCGGUCGGGGAAGAUGUAUUCUUCUCAUAAGAUAUAGUCGGACCUCUCCUUAAUGGGAGCUAGCGGAUGAAGUGAUGCAACACUGGAGCCGCUGGGAACUAAUUUGUAUGCGAAAGUAUAUUGAUUAGUUUUGGAGUACUCGUGGUCG
Method in brief: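 Colonies from six replicate transformations of E. coli BL21(DE3) were pooled and amplicon-sequenced on an Illumina HiSeq 2500. The library placed an intron with all eight P1ex-region nucleotides randomised inside the knt kanamycin-resistance gene on pET-22b(+), and cells grew overnight at 37°C or 30°C on LB agar with or without 25 μg/mL kanamycin (plus 100 μg/mL carbenicillin, 50 μM IPTG, 0.2% rhamnose). Fitness is the DiMSum error-weighted combination of wild-type-normalised replicate fold changes, kanamycin versus none.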

Row | Sequence | self-splicing fitness (ln) (30 °C) | self-splicing fitness (ln) (37 °C)
1 | CGCAAGCAAUAUUACGUGCU | -0.881 ± 0.069 | -0.489 ± 0.081
2 | CGCAAGCAAUAUUACGUUCU | -1.53 ± 0.076 | -1.33 ± 0.087
3 | CGCCAGCAAUAUUACGAACU |  | 0.274 ± 0.25
4 | CGCCAGCAAUAUUACGACGC | -3.21 ± 0.2 | -2.97 ± 0.35
5 | CGCCAGCAAUAUUACGCAAA | -2.31 ± 0.19 | -2.64 ± 0.26
6 | CGCCAGCAAUAUUACGCACC | -2.37 ± 0.17 | -2.33 ± 0.35
7 | CGCCAGCAAUAUUACGCAUA | -3.34 ± 0.24 | -1.86 ± 0.2
8 | CGCCAGCAAUAUUACGCCUA | -3 ± 0.36 | -1.98 ± 0.32
9 | CGCCAGCAAUAUUACGCGCA | -1.98 ± 0.13 | -0.948 ± 0.13
10 | CGCCAGCAAUAUUACGCGCG | -3.57 ± 0.16 | -3.7 ± 0.27
11 | CGCCAGCAAUAUUACGCUAC | -3.74 ± 0.36 | -2.58 ± 0.28
12 | CGCCAGCAAUAUUACGCUCA | -0.656 ± 0.073 | 0.163 ± 0.083
13 | CGCCAGCAAUAUUACGCUUA | -3.1 ± 0.21 | -1.87 ± 0.17
14 | CGCCAGCAAUAUUACGGCAG | -2.3 ± 0.11 | -1.02 ± 0.12
15 | CGCCAGCAAUAUUACGGCUG | -4.51 ± 0.36 | -1.67 ± 0.19
16 | CGCCAGCAAUAUUACGGUCG | -4.17 ± 0.19 | -2.5 ± 0.2
17 | CGCCAGCAAUAUUACGGUUG | -3.7 ± 0.17 | -1.78 ± 0.15
18 | CGCCAGCAAUAUUACGUAAA | -3.21 ± 0.19 | -1.46 ± 0.13
19 | CGCCAGCAAUAUUACGUACA | -2.74 ± 0.2 | -0.166 ± 0.17
20 | CGCCAGCAAUAUUACGUAUA | -4.14 ± 0.23 | -3.42 ± 0.23
21 | CGCCAGCAAUAUUACGUCGU | -3.29 ± 0.15 | -2.35 ± 0.16
22 | CGCCAGCAAUAUUACGUGGG | -3.79 ± 0.19 | -2.38 ± 0.19
23 | CGCCAGCAAUAUUACGUGUA | -3.04 ± 0.097 | -1.04 ± 0.072
24 | CGCCAGCAAUAUUACGUUCU | -3.88 ± 0.26 | -1.89 ± 0.17
25 | CGCCAGCAAUAUUACGUUUA | -3.18 ± 0.15 | -2.83 ± 0.17
26 | CGCCAGCAAUAUUACGUUUU | -3.8 ± 0.15 | -2.76 ± 0.16

Row | Sequence | self-splicing fitness (ln) (30 °C) | self-splicing fitness (ln) (37 °C)
27 | CGCGAGCAAUAUUACGACUG | 0.265 ± 0.17 | 0.0174 ± 0.17
28 | CGCGAGCAAUAUUACGAGCG | -3.55 ± 0.28 | -2.37 ± 0.3
29 | CGCGAGCAAUAUUACGCCGG | -2.19 ± 0.25 | -1.58 ± 0.44
30 | CGCGAGCAAUAUUACGCUGC | -2.91 ± 0.28 | 
31 | CGCGAGCAAUAUUACGCUGU | -2.6 ± 0.16 | -2.74 ± 0.31
32 | CGCGAGCAAUAUUACGGAGC |  | -1.99 ± 0.26
33 | CGCGAGCAAUAUUACGGCGC | -2.93 ± 0.23 | -2.88 ± 0.31
34 | CGCGAGCAAUAUUACGGCGG | -1.64 ± 0.12 | -0.636 ± 0.17
35 | CGCGAGCAAUAUUACGGCUU | -3.01 ± 0.42 | -2.54 ± 0.26
36 | CGCGAGCAAUAUUACGGGGC | -3.26 ± 0.26 | 
37 | CGCGAGCAAUAUUACGGUCU | -3.82 ± 0.2 | -0.953 ± 0.15
38 | CGCGAGCAAUAUUACGGUGA | -2.81 ± 0.14 | -1.7 ± 0.11
39 | CGCGAGCAAUAUUACGUAUC | -3.93 ± 0.34 | -3.93 ± 0.36
40 | CGCGAGCAAUAUUACGUGUA | -3.72 ± 0.18 | -1.48 ± 0.11
41 | CGCGAGCAAUAUUACGUUGC | -3.68 ± 0.3 | 
42 | CGCGAGCAAUAUUACGUUUG | -4.03 ± 0.21 | -1.91 ± 0.18
43 | CGCUAGCAAUAUUACGAAGG | -1.06 ± 0.098 | -0.735 ± 0.13
44 | CGCUAGCAAUAUUACGAAUC | -3.64 ± 0.21 | -0.947 ± 0.15
45 | CGCUAGCAAUAUUACGACUA | -2.81 ± 0.16 | -2.52 ± 0.23
46 | CGCUAGCAAUAUUACGACUG | -0.448 ± 0.05 | 0.456 ± 0.068
47 | CGCUAGCAAUAUUACGAUCC | -2.01 ± 0.37 | -1.74 ± 0.42
48 | CGCUAGCAAUAUUACGCACG | -2.53 ± 0.17 | -2.06 ± 0.24
49 | CGCUAGCAAUAUUACGCAGG | -3.17 ± 0.18 | -1.83 ± 0.23
50 | CGCUAGCAAUAUUACGCAUA | -3.26 ± 0.21 | -2.36 ± 0.21
51 | CGCUAGCAAUAUUACGCCAC | -3.86 ± 0.43 | -1.09 ± 0.26
52 | CGCUAGCAAUAUUACGCCGC | -2.55 ± 0.18 | 

Row | Sequence | self-splicing fitness (ln) (30 °C) | self-splicing fitness (ln) (37 °C)
53 | CGCUAGCAAUAUUACGGAGU | -3.65 ± 0.27 | -2.42 ± 0.25
54 | CGCUAGCAAUAUUACGGGGA | -2.93 ± 0.32 | -1.95 ± 0.32
55 | CGCUAGCAAUAUUACGGGUA | -0.542 ± 0.11 | -0.011 ± 0.12
56 | CGCUAGCAAUAUUACGGGUG | -3.31 ± 0.12 | -2.83 ± 0.13
57 | CGCUAGCAAUAUUACGGUGU | -3.54 ± 0.15 | -2.22 ± 0.21
58 | CGCUAGCAAUAUUACGUAAC | -4.07 ± 0.31 | -2.87 ± 0.38
59 | CGCUAGCAAUAUUACGUAGG | -1.4 ± 0.058 | -0.925 ± 0.081
60 | CGCUAGCAAUAUUACGUCUC | -2.62 ± 0.48 | -1.46 ± 0.23
61 | CGCUAGCAAUAUUACGUCUG | -0.182 ± 0.078 | 0.774 ± 0.089
62 | CGCUAGCAAUAUUACGUGAA | -3.59 ± 0.16 | -2.34 ± 0.087
63 | CGCUAGCAAUAUUACGUUCU | -2.16 ± 0.11 | -1.67 ± 0.12
64 | CGCUAGCAAUAUUACGUUUA | -3.37 ± 0.23 | -2.56 ± 0.18
65 | CGCUAGCAAUAUUACGUUUU | -3.8 ± 0.16 | -1.68 ± 0.13
66 | CGGAAGCAAUAUUACGAACC |  | -1.43 ± 0.41
67 | CGGAAGCAAUAUUACGAAGA | -3.45 ± 0.4 | -3.08 ± 0.47
68 | CGGAAGCAAUAUUACGAAUG | -0.506 ± 0.079 | -0.137 ± 0.12
69 | CGGAAGCAAUAUUACGACUA | -0.269 ± 0.1 | 0.239 ± 0.1
70 | CGGAAGCAAUAUUACGAGAA | -2.88 ± 0.48 | -2.03 ± 0.24
71 | CGGAAGCAAUAUUACGAGUU | -3.29 ± 0.2 | -2.49 ± 0.2
72 | CGGAAGCAAUAUUACGAUCG | -1.86 ± 0.1 | -1.07 ± 0.14
73 | CGGAAGCAAUAUUACGAUGA | -1.91 ± 0.11 | -0.379 ± 0.096
74 | CGGAAGCAAUAUUACGCAGA | -1.98 ± 0.33 | -2.01 ± 0.3
75 | CGGAAGCAAUAUUACGCAGC | -3.56 ± 0.37 | -1.49 ± 0.27
76 | CGGAAGCAAUAUUACGCAGU | -2.73 ± 0.14 | -2.25 ± 0.21
77 | CGGAAGCAAUAUUACGCCGG | -0.726 ± 0.15 | 0.698 ± 0.19
78 | CGGAAGCAAUAUUACGCUAC | -2.38 ± 0.24 | -3.01 ± 0.47
